# According to paper PMC3045209:
# Biological target: protein A (UniProt P38507)
# Assay: SPR
substance,measurement,value
rabbit IgG (antibody),SPR angle increase,2.1 °
